Columns and labels:
Test in all cases: Western blot of platelet-poor plasma; primary antibody murine 5C12
[1] = molecular target: T1, rhesus macaque FXII (rhesus macaque, UniProt F7FY72 20-615)
T1 construct: Plasma protein
T1 sequence: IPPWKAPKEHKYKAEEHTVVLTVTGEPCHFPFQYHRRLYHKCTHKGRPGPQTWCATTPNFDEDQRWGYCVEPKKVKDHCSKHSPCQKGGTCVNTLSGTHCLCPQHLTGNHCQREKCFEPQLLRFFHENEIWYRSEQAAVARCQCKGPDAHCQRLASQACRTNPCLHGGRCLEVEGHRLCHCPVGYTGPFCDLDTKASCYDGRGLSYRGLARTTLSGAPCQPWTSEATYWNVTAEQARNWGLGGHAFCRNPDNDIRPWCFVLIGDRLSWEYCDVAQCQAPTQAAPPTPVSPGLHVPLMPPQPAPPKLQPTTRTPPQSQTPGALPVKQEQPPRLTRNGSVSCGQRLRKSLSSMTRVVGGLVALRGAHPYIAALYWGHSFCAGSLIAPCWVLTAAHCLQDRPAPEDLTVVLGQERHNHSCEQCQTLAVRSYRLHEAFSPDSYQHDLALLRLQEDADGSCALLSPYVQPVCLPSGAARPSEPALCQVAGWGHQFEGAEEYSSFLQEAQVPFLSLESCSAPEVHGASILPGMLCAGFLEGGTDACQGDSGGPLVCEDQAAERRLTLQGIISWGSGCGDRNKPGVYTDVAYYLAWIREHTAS
Description: (§1) FIG. 3A-3C: Species specificity of 5C12. (FIG. 3A) Western blots of platelet poor plasmas from different species (indicated above each lane) size fractionated by SDS-PAGE […]. Species included in alphabetical order: African green monkey, baboon, beagle, cat, cattle, chicken, cynomolgus monkey, dog, elephant, giant anteater, horse, human, human deficient in FXII, llama, marmoset, pig, rabbit, raccoon, rat, red kangaroo, rhesus macaque and tiger. Human plasma and human deficient in FXII plasma were used in all gels as a positive and negative control, respectively. […] 5C12 also recognizes both the alpha (comprising both the light and heavy chain of FXII) and the beta (comprising only the light chain and a nonapeptide fragment of the heavy chain) form of activated FXII (FXIIa) (FIG. 3C). The primary antibody for all Western blots was murine 5C12, the secondary antibody was goat-anti-mouse polyclonal.

[2] = molecular target: T2, cattle FXII (cattle, UniProt P98140 20-612)
T2 construct: mature; Plasma protein
T2 sequence (looked up): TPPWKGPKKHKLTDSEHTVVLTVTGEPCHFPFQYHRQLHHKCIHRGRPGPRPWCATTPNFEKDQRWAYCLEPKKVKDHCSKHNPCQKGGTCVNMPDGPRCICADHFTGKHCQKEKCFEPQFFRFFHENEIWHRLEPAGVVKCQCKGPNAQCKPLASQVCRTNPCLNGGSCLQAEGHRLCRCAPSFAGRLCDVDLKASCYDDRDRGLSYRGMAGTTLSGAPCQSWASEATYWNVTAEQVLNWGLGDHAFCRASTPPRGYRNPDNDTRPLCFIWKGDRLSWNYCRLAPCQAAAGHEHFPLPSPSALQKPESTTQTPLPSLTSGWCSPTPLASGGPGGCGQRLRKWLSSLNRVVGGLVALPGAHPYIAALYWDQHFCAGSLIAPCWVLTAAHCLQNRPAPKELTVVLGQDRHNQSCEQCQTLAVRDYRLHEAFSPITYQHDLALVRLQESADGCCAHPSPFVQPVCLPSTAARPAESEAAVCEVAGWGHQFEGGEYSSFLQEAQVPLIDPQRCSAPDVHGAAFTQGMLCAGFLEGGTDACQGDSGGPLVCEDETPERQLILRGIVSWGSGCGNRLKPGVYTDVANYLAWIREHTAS
Description: as §1

[3] = molecular target: T3, pig FXII (pig, UniProt O97507 20-616)
T3 construct: mature; Plasma protein
T3 sequence (looked up): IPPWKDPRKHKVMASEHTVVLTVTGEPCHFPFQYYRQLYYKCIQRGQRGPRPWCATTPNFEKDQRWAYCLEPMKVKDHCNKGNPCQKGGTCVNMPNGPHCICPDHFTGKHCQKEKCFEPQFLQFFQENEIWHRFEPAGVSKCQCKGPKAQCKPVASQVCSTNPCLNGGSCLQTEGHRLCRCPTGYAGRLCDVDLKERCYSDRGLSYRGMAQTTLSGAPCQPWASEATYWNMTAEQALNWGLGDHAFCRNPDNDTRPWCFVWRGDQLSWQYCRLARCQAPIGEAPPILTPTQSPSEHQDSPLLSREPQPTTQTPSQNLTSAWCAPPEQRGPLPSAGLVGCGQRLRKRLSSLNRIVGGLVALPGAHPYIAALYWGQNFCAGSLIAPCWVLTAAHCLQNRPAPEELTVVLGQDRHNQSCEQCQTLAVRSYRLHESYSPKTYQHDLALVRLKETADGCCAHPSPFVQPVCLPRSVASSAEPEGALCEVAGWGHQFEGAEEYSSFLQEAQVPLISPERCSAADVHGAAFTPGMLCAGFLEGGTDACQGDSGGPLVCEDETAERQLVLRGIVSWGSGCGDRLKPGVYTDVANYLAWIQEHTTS
Description: as §1

[4] = molecular target: T4, rabbit FXII (rabbit, UniProt G1SIB7 20-617)
T4 construct: Plasma protein
T4 sequence: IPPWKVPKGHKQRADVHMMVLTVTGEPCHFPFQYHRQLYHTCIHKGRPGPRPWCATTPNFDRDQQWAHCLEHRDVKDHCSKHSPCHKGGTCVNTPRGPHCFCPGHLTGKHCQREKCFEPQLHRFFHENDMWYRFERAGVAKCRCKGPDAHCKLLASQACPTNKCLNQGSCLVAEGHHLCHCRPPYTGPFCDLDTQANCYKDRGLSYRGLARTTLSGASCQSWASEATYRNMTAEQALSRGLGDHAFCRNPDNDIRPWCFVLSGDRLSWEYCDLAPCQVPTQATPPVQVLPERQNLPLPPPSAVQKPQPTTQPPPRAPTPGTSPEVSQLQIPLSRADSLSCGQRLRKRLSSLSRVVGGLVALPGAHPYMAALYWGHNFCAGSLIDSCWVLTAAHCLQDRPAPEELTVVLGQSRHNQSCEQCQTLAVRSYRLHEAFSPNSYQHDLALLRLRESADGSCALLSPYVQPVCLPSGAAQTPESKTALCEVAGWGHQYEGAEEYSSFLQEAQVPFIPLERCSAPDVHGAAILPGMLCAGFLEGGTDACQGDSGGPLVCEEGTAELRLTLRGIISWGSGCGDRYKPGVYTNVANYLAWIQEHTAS
Description: as §1

Measured: binding result

B1: mouse monoclonal antibody 5C12 (antibody, mouse IgG1, kappa, V domains shown)
VH: DVQLQESGPDLVKPSQSLSLTCTVTGYSITSGYSWHWIRQFPGNNLEWMGYIQYSGNTNSNPSLKSRISITRDTSKNQFFLHLNSVTTEDTATYYCARWGSFDYWGQGTTLTVSS
VL: QIVLTQSPAIMSASPGEKVTMTCSASSSVNYMHWYQQKSGTSPKRWIYDTSKLASGVPARFSGSGSGTSYSLTISSMEAGDAATYYCQQWSGNPPTFGGGTILEIKR
notes: Purified from hybridoma; also called AB053; 5C12 MAb
no binding: all assays above
